± gives the uncertainty stated by the source.
Test: protein stability index of a GFP-peptide fusion (yeast GPS) (PSI 1-4); higher = more stable; sorted into four equal gates, so the index is relative within each strain
How it was run: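 Tiled 17-residue yeast protein peptides were fused downstream of GFP in a plasmid that also expresses Cherry, and the pooled library was carried in yeast. Mid-log cultures in leucine-free medium were sorted into four equal gates by GFP/Cherry fluorescence ratio, and plasmids from each gate were PCR-amplified and Illumina-sequenced, with reads assigned to strains by barcodes. The protein stability index for each peptide was each gate's read frequency times its gate number, summed.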

Sequence | protein stability index (doa10∆) | protein stability index (pdr5∆) | protein stability index (ubr1∆) | protein stability index (san1∆)
VYGEGTSRVTGILLLDS [YJL039C/NUP192] | 3.19 ± 0.19 | 3.31 ± 0.091 | 3.44 ± 0.091 | 
VYKDNLSFIQVRIDLGT [RPO31] | 1.28 ± 0.071 | 1.58 ± 0.074 | 1.52 ± 0.082 | 1.79 ± 0.1
VYLSLLDKDSSQSSAAA [RPN6] | 3 ± 0.16 | 3.21 ± 0.069 | 3.03 ± 0.071 | 
VYLTAVLEYLAAEILEL [HTA1] | 2.47 ± 0.12 | 2.43 ± 0.1 | 2.61 ± 0.075 | 2.21 ± 0.09
VYSVDPLEKITDAYLDQ [PRP8] | 3.33 ± 0.17 | 3.11 ± 0.15 | 3.15 ± 0.15 | 2.98 ± 0.1
WALKSSLNSMTNAKLPN [RGR1] | 2.74 ± 0.092 | 2.77 ± 0.13 | 2.39 ± 0.05 | 3.17 ± 0.052
WDLQLQEKESQIQLAES [SMC4] | 3.05 ± 0.056 | 3.08 ± 0.076 | 3.07 ± 0.06 | 2.82 ± 0.082
WGVNLPAHTVIIKGTDV [BRR2] | 2.82 ± 0.086 | 2.79 ± 0.13 | 2.58 ± 0.058 | 2.32 ± 0.083
WIAMRREKRDRTHFKRM [PRP8] | 1.99 ± 0.079 | 2.54 ± 0.078 | 1.93 ± 0.065 | 2.04 ± 0.2
WKDFTVEIAFLFRAIYL [YCG1] | 2.36 ± 0.1 | 2.36 ± 0.064 | 2.26 ± 0.071 | 2.48 ± 0.1
WKLLNQLVLRGLLSQAI [YJR042W/NUP85] | 2.01 ± 0.18 | 1.3 ± 0.076 | 1.17 ± 0.1 | 1.28 ± 0.11
WKPNPSYDVENVNSRNQ [SRB5] | 2.96 ± 0.084 | 2.95 ± 0.14 | 3.3 ± 0.085 | 3 ± 0.11
WLEEYHPKLIKNKSGKI [FAS1] | 1.59 ± 0.12 | 1.83 ± 0.075 | 1.67 ± 0.046 | 1.42 ± 0.092
WLKNKFAEENITHKLTK [BRR2] | 3.13 ± 0.085 | 3.03 ± 0.06 | 3.01 ± 0.078 | 2.85 ± 0.047
WPTTHKYPLGHFVRDLG [DIS3] | 2.46 ± 0.063 | 2.58 ± 0.086 | 2.49 ± 0.11 | 3.07 ± 0.08
WREIIEKVRDYENSISK [IRR1] | 2.86 ± 0.076 | 2.59 ± 0.085 | 2.67 ± 0.047 | 2.39 ± 0.061
WRKWNVKVNHNEKRYAT [RPL4A] | 2.36 ± 0.24 | 2.94 ± 0.16 | 1.94 ± 0.23 | 1.59 ± 0.13
WRQFGNRMQISPDQMRN [GRR1] | 3.07 ± 0.12 | 3.14 ± 0.12 | 2.75 ± 0.11 | 2.89 ± 0.11
WVKKFKWAGIKTRKFVF [CYT1] | 1.14 ± 0.12 | 1.51 ± 0.1 | 1.27 ± 0.074 | 
WYQFSNSKDHKKITLQL [SIN4] | 3.35 ± 0.13 | 3.47 ± 0.12 | 2.86 ± 0.068 | 2.47 ± 0.22

Sequence | protein stability index (doa10∆) | protein stability index (pdr5∆) | protein stability index (ubr1∆) | protein stability index (san1∆)
YDDFIYLSDLKQFFQMT [PCI8] | 2.5 ± 0.075 | 2.89 ± 0.073 | 2.87 ± 0.051 | 2.61 ± 0.084
YDLLISTLTTISGNPPL [SRB5] | 2.43 ± 0.052 | 2.3 ± 0.045 | 2.46 ± 0.04 | 1.77 ± 0.07
YDNGQVFPSSILDITDE [RPP0] | 1.91 ± 0.048 | 1.79 ± 0.077 | 1.32 ± 0.073 | 2.42 ± 0.093
YDRATLTQLLSMMSDGI [RPO31] | 2.29 ± 0.062 | 2.44 ± 0.053 | 1.66 ± 0.038 | 2.56 ± 0.054
YDVLHDVFTINPHQKDQ [YML103C/NUP188] |  | 2.15 ± 0.098 | 2.61 ± 0.25 | 2.12 ± 0.13
YEGMKLGNHAITIDSVV [YMR129W/POM152] | 2.27 ± 0.094 | 1.36 ± 0.12 | 2 ± 0.15 | 1.64 ± 0.16
YELEFDTPTSGKHNLTI [BRR2] | 3.1 ± 0.068 | 3.04 ± 0.076 | 3.23 ± 0.065 | 3.18 ± 0.061
YENKDNLTAGIIVAGYD [PRE3] | 2.71 ± 0.047 | 2.91 ± 0.05 | 2.78 ± 0.036 | 2.98 ± 0.04
YERRFGPYFVGPVVAGI [PUP3] | 3.25 ± 0.22 | 2.81 ± 0.18 | 3.11 ± 0.16 | 
YESQTFSSKNEWRKSAI [PRP8] | 3.23 ± 0.076 | 3.28 ± 0.063 | 3.01 ± 0.059 | 3.29 ± 0.06
YGEAPTSPGFGVSSPGF [RPO21] | 3.06 ± 0.14 | 3.45 ± 0.14 | 3.17 ± 0.054 | 2.93 ± 0.17
YGEATSPFGAYGEAPTS [RPO21] | 2.48 ± 0.065 | 2.58 ± 0.049 | 2.79 ± 0.054 | 2.9 ± 0.064
YGESDIHFREHQSELII [YMR129W/POM152] | 2.31 ± 0.089 | 2.89 ± 0.096 | 2.49 ± 0.077 | 2.21 ± 0.13
YGIFGEGVEYSFLHVDD [POP8] | 2.25 ± 0.084 | 2.31 ± 0.072 | 2.71 ± 0.049 | 1.92 ± 0.12
YGIVAMAATATDKIGRS [FAS2] | 1.64 ± 0.063 | 1.82 ± 0.06 | 2.26 ± 0.051 | 1.65 ± 0.092
YGPPGTGKTLLAKAVAA [RPT4] | 2.17 ± 0.069 | 2.23 ± 0.06 | 1.93 ± 0.05 | 1.98 ± 0.089
YGSSPKLLATSTKIIML [SRB8] | 1.59 ± 0.065 | 1.7 ± 0.063 | 1.24 ± 0.069 | 1.63 ± 0.16
YHLHPTFANPNRTFTDP [TAF14] | 1.94 ± 0.068 | 2.02 ± 0.055 | 1.7 ± 0.036 | 2.21 ± 0.1
YHSAGGRDKHALSLLYH [SSN3] | 3.12 ± 0.082 | 3.02 ± 0.066 | 3.32 ± 0.066 | 3.19 ± 0.059
YHTNPGHSQFTSHYQNY [RPN4] | 2.82 ± 0.067 | 2.9 ± 0.089 | 3.04 ± 0.054 | 3.02 ± 0.079
